The text below walks through data of article PMC4585913, “Crystal structure of Streptococcus pneumoniae pneumolysin provides key insights into early steps of pore formation” (Scientific Reports, 2015).

The series concerns the molecule itself. The series is described as follows: crystal structure; PLY 10.5 mg/ml co-crystallised with 5 mM KAu(CN)2 in 10% PEG 8000, 10% glycerol, 10% ethylene glycol, 100 mM HEPES pH 7.5; space group P212121, one molecule in the asymmetric unit; linear oligomer formed by crystal packing; 2.9 A.

B1: Pneumolysin (Hexahis-PLY, wild type) (natural protein, Streptococcus pneumoniae)
chain: ANKAVNDFILAMNYDKKKLLTHQGESIENRFIKEGNQLPDEFVVIERKKRSLSTNTSDISVTATNDSRLYPGALLVVDETLLENNPTLLAVDRAPMTYSIDLPGLASSDSFLQVEDPSNSSVRGAVNDLLAKWHQDYGQVNNVPARMQYEKITAHSMEQLKVKFGSDFEKTGNSLDIDFNSVHSGEKQIQIVNFKQIYYTVSVDAVKNPGDVFQDTVTVEDLKQRGISAERPLVYISSVAYGRQVYLKLETTSKSDEVEAAFEALIKGVKVAPQTEWKQILDNTEVKAVILGGDPSSGARVVTGKVDMVEDLIQEGSRFTADHPGLPISYTTSFLRDNVVATFQNSTDYVETKVTAYRNGDLLLDHSGAYVAQYYITWNELSYDHQGKEVLTPKAWDRNGQDLTAHFTTSIPLKGNVRNLSVKIRECTGLAWEWWRTVYEKTDLPLVRKRTISIWGTTLYPQVEDKVEN
notes: Pneumolysin (PLY) of Streptococcus pneumoniae, wild type, cloned into pQE-30; the domains described span residues 1 to 470; The crystals run on SDS-AGE were grown without gold; Three residues of the His tag/linker are visible at the N-terminus of the model; It is written here as m1; also called native PLY; not shown: His6, N-terminal, kept
Consider B1, for which the binding result is reported as “binds”.
